Laboratory results reported in patent US20080090771A1, “ABUSE-RESISTANT H[…], COMPOSITIONS AND METHODS OF USING THE SAME” (SHIRE LLC, priority 2006, published 2008).
No end group written: not given here.

Experiments:
[1] = Intranasal bioavailability of hydrocodone conjugates in rats; conditions: relative to hydrocodone
[2] = Oral bioavailability of hydrocodone conjugates in rats; conditions: for bioavailability (% HC) oral AUC / bioavailability (% HC) oral Cmax: rats, relative to hydrocodone; for Oral:IN Index AUC: ratio of oral to intranasal AUC (% HC); for Oral:IN Index Cmax: ratio of oral to intranasal Cmax (% HC)

Substance | bioavailability (% HC) IN AUC [1] [% HC] | bioavailability (% HC) IN Cmax [1] [% HC] | bioavailability (% HC) oral AUC [2] [% HC] | bioavailability (% HC) oral Cmax [2] [% HC] | Oral:IN Index AUC [2] | Oral:IN Index Cmax [2]
Asp-Asp-Asp-Asp-Ile-HC (DDDDI-hydrocodone) | 36 | 64 | 79 | 110 | 2.19 | 1.72
Asp-Asp-Gly-Gly-Ile-HC (DDGGI-hydrocodone) | 48 | 67 | 82 | 80 | 1.71 | 1.19
Asp-Asp-Ile-HC | 59 | 93 | 280 | 238 | 4.75 | 2.56
Asp-Asp-Phe-Phe-Ile-HC (DDFFI-hydrocodone) | 56 | 62 | 115 | 167 | 2.05 | 2.69
Asp-Asp-Pro-Pro-Ile-HC (DDPPI-hydrocodone) | 45 | 80 | 92 | 95 | 2.04 | 1.19
Glu-Glu-Asp-Asp-Ile-HC (EEDDI-hydrocodone) | 53 | 81 | 108 | 129 | 2.04 | 1.59
Glu-Glu-Gly-Gly-Ile-Hydrocodone (EEGGI-hydrocodone) [Glu-Glu-Gly-Gly-Ile-HC] | 50 | 56 | 81 | 77 | – | –
Glu-Glu-Gly-Gly-Phe-HC (EEGGF-hydrocodone) | 89 | 97 | 110 | 112 | 1.24 | 1.15
Glu-Glu-Ile-HC | 52 | 59 | 83 | 112 | 1.60 | 1.90
Glu-Glu-Phe-Phe-Ile-HC (EEFFI-hydrocodone) | 68 | 76 | 96 | 129 | 1.41 | 1.70
Glu-Glu-Phe-Phe-Phe-Hydrocodone (EEFFF-hydrocodone) [Glu-Glu-Phe-Phe-Phe-HC] | 27 | 47 | 83 | 89 | 3.07 | 1.89
Gly-Gly-Glu-Glu-Ile-HC (GGEEI-hydrocodone) | 66 | 77 | 96 | 119 | 1.45 | 1.55
Gly-Gly-Pro-Pro-Ile-HC (GGPPI-hydrocodone) | 44 | 56 | 94 | 121 | 2.14 | 2.16
Leu-Pro-Phe-HC | 83 | 101 | 106 | 125 | 1.28 | 1.24
Lys-Lys-Asp-Asp-Ile-HC (KKDDI-hydrocodone) | 39 | 56 | 90 | 121 | 2.31 | 2.16
Lys-Lys-Ile-HC | 68 | 94 | 80 | 76 | 1.18 | 0.81
Lys-Lys-Pro-Pro-Ile-HC (KKPPI-hydrocodone) | 68 | 94 | 80 | 76 | 1.18 | 0.81
Pro-Ile-Ile-HC | 86 | 102 | 104 | 99 | 1.21 | 0.97
Pro-Leu-Ile-HC | 87 | 101 | 141 | 172 | 1.62 | 1.70
Pro-Pro-Leu-HC | 46 | 48 | 94 | 108 | 2.04 | 2.25
Tyr-Tyr-Ile-HC | 20 | 34 | 145 | 234 | 7.25 | 6.88
Tyr-Tyr-Phe-Phe-Ile-HC | 26 | 34 | 113 | 63 | 4.35 | 1.85
Tyr-Tyr-Pro-Pro-Ile-HC (YYPPI-hydrocodone) | 10 | 10 | 218 | 213 | – | –
